Source: patent US7777010 (CRUCELL HOLLAND B V, dated 2010)

T1: purified recombinant Ep-CAM produced in insect cells (UniProt P16422 24-265, limits assumed)
T1 construct: Coupled to a CM5 sensor chip by NHS/EDC; Neither the species nor the construct limits are stated at this place
T1 sequence (looked up): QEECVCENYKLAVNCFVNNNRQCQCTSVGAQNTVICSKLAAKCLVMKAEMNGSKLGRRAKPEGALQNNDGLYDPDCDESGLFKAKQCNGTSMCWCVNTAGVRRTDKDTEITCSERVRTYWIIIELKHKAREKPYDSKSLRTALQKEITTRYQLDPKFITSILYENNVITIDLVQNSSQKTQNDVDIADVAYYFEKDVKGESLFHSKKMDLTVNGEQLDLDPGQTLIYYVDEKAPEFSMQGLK


How the values were obtained:
[1] = molecular target: T1, purified recombinant Ep-CAM produced in …; assay: SPR (BIAcore), recombinant Ep-CAM coupled to CM5 chip, IgG1 in flow
Method: (§1) In separate BIAcore flow cells, approximately 160, 1565 and 4154 resonance units of purified recombinant Ep-CAM produced in insect cells (kindly provided by Dr. D. Herlyn, Wistar institute, Philadelphia, Pa.) (25 µg/ml) in 10 mM acetate buffer (pH 4.0) were coupled to a CM5 sensor chip using NHS/EDC coupling chemistry. Association and dissociation were measured under continuous flow of […] using a concentration range from 100 to 1 nM.
(§2) The kinetic association and dissociation rates of the original huMab UBS-54 and the mutant huMabs A37 and C52 were determined by surface plasmon resonance (Table 1). […] The improvement was mainly the result of a lower […].

[2] = molecular target: T1, purified recombinant Ep-CAM produced in …; assay: SPR (BIAcore), recombinant Ep-CAM coupled to CM5 chip
Method: as §1, §2

Kd [1]	koff [1]	kon [1]	fold increase in affinity against the original huMab UBS-54 [2]	fold improvement of binding affinity against the original UBS-54 huMab [2]	Binder
6 nM	0.0006 s⁻¹	100000 M⁻¹ s⁻¹			huMab UBS-54 (antibody, V domains shown, Tested as an intact human IgG1/kappa huMab made in BHK cells (VH1 / Vk2 V regions); FITC-labelled in the spheroid experiment; also called original huMab UBS-54; original UBS-54) VH: QVQLVQSGAEVKKPGSSVRVSCKASGGTFSSYAISWVRQAPGQGLEWMGGIIPIFGTANYAQKFQGRVTITADESTSTAYMELSSLRSEDTAVYYCARDPFLHYWGQGTLVT VL: not shown
1.6 nM	0.00041 s⁻¹	250000 M⁻¹ s⁻¹	~4 fold		huMab A37 (antibody, V domains shown, Tested as an intact human IgG1/kappa huMab made in BHK cells; It has the UBS-54 VH with a shuffled Vk3 light chain; also called mutant A37) VH: QVQLVQSGAEVKKPGSSVRVSCKASGGTFSSYAISWVRQAPGQGLEWMGGIIPIFGTANYAQKFQGRVTITADESTSTAYMELSSLRSEDTAVYYCARDPFLHYWGQGTLVT VL: EIELTQSPGTLSLSPGERATLSCRASQTISNNYLAWYQQKRGQAPRLLIYAASSRATGIPDRFSGTGSGTDFTLTISRLEPEDFAVYYCAQGELYPRQFGGGTKLEI
0.4 nM	0.00011 s⁻¹	270000 M⁻¹ s⁻¹		15 fold	huMab C52 (antibody, V domains shown, Tested as an intact human IgG1/kappa huMab made in BHK cells; It has the B43 VH with a DNA-shuffled A37-derived Vk light chain; FITC-labelled in the spheroid experiment; also called mutant C52) VH: QVQLVQSGAEVKKPGASVKVSCKASGGTFSSYAISWVRQAPGQGLEWMGGIVPIFGTANYAQKFQGRVTITADESTSTAYMELSSLRSEDTAVYYCARDPFLHYWGQGTLVT VL: EIELTQSPGTLSLSPGERATLSCRASQSVSSSYLAWYQQKPGQAPRLLIYGASSRATGIPDRFSGSGSGTDFTLTISRLEPEDFAVYYCAQGELYPRQFGGGTKLDI
